Laboratory results as given in paper PMC9825169, “The Caulobacter crescentus DciA promotes chromosome replication through topological loading of the DnaB replicative helicase at replication forks” (Nucleic Acids Research, 2022).

B1: DciA with an N-terminal hexahistidine tag (His-DciA; 21 kDa) (natural protein, Caulobacter crescentus, UniProt A0A0H3C5R2 1-179, looked up)
chain: MRRPLPTPEEAIAILRSKRTKPQRRPPPPAGKNLAPLLKDLEDRFGKGPAALQARWKEIVGDTLARRTEPVRIIKGRNGEGGALELRVDGPVASLIQHQAPQITARLDMLLGKGVVTRLRIVQGPVKAPAAAPSTRLRRKPPLDAALEKQLADSLAEQPDGALKQALLKLGRGVLSSER
notes: DciA (CCNA_00380) of Caulobacter crescentus; This is surmised from the primer; construction details are in the Supplemental Materials; source: E. coli, purified (procedure in the Supplemental Material); not shown: His6, N-terminal, kept
B2: DnaB with a C-terminal hexahistidine tag (DnaB-His; 56 kDa) (enzyme, Caulobacter crescentus, UniProt A0A0H3C7A8 1-507, looked up)
chain: MPMSLVPALDLVLPGLPEPTINVAPHNMEAEQALLGVLLYDNAAYERLSDNLQARCFYEPFHQRLFQAIETHVRKGQLAEPILLADEFKKDPAFEELGGLRYLADLVDRAPPAANVGDYARVIFDLSLRRELIRIGGDIATAAQGGNDEKRNARDQIEAAEQSLYSLAESGAASSGFVSFGDALRGAVEMTAEAYSRDGGMSGVSTDLMDLDQKIGGLHPSDLIILAGRPSMGKTALATNIAFNIAKKYAYEIQPDGTKKTVQGGVVAFYSLEMSAEQLALRMLADASGVSGDRLRKGEIDASEFGRVRDAAMELQNAPLYIDATGGISIAKLTARARRLKRQVGLDLIVVDYLQLVTGSDLGANANRVQEVSQITMGLKALAKELSVPVIALSQLSRQVEQRDDKRPQLSDLRESGSIEQDADMVWFVYREAYYVGRAEPREGTPEHLTWQEEMDRLQGLAEVIIAKQRHGPIGTVRLSFNSDTTRFGNLARDHYFAQARNIPSDE
notes: Replicative DNA helicase DnaB (CCNA_01737) of Caulobacter crescentus; Hexamer by size exclusion chromatography; Construction details are in the Supplemental Materials; also called C. crescentus DnaB; CCNA_01737; source: E. coli, purified (procedure in the Supplemental Material); not shown: His6, C-terminal, kept

Tests used:
DnaB-His = target: T1, DnaB-His (Caulobacter vibrioides, UniProt A0A0H3C7A8); assay: ATPase assay, [alpha-32P]ATP, TLC on PEI cellulose, Michaelis-Menten fit; type: biochemical; conditions: pH 7.5, 10 mM magnesium acetate, 30 C, 5-160 uM ATP, 8.3 nM hexamer, no DciA; labelled compound
T1 construct: gene CCNA_01737; full-length, C-terminal His6 tag kept, expressed in E. coli Rosetta 2(DE3), 56 kDa monomer, hexamer (330 kDa) from size exclusion chromatography

[1] = target: B2; assay: SEC; Superdex 200 Increase 10/300 GL; 25 mM Tris-HCl pH 7.5, 300 mM sodium chloride, 20% glycerol, 0.1 mM ATP, 5 mM magnesium chloride; 0.2 ml/min; DnaB-His 10 nmol, His-DciA 25 nmol, alone or mixed; fractions on SDS-PAGE with Coomassie staining; conditions: both partners purified
[2] = target: the molecule itself; assay: as above

Molecule: Nc1ncnc2c1ncn2[C@@H]1O[C@H](COP(=O)(O)OP(=O)(O)OP(=O)(O)O)[C@@H](O)[C@H]1O [ATP]
- ATPase assay, [alpha-32P]ATP, TLC on PEI cellulose, Michaelis-Menten fit (DnaB-His): ATP hydrolysis was readily observed at various concentrations of wild-type DnaB-His

Molecule: B1
- stoichiometry N [1]: 1.9 DnaB-His per His-DciA

Molecule: B2
- stoichiometry N [2]: 6
